Results published in article PMC11187910.
Each block holds one substance with its values, some of them ahead of it.

Columns and labels:
IDH1 = IDH1 (UniProt O75874); assay: co-IP of Flag-IDH1 and HA-IDH1; details: reference: Flag-IDH1 wild type, MPA; sites T77
OCT6 (POU3F1) = OCT6 (POU3F1) (UniProt Q03052); assay: co-immunoprecipitation; details: reference: wild type, MPA; sites T77
isocitrate (ICT) = assay: SPR; details: 1:1 binding model

Sequence of UniProt O75874 (O75874 whole entry T77A): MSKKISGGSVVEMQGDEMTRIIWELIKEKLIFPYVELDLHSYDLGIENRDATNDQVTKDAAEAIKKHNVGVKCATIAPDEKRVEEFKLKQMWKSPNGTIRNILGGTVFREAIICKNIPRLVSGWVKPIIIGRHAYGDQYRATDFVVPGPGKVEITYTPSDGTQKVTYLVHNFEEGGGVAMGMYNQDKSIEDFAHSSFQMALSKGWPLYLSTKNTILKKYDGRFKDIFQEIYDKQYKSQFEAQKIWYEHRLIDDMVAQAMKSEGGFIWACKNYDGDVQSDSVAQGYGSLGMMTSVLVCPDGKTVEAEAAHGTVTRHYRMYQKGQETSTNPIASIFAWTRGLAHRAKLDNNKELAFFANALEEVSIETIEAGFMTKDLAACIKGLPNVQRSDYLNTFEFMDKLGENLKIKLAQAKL

binding against the reference (IDH1): weaker
Substance: IDH1 (from UniProt O75874) Flag-IDH1 T77A, MPA

binding against the reference (OCT6 (POU3F1)): weaker
Substance: IDH1 (from UniProt O75874) T77A, MPA

Kd (isocitrate (ICT)): 112 nM
Substance: recombinant IDH1 WT T77A
